These results are taken from paper PMC9256674, “Structures of LIG1 that engage with mutagenic mismatches inserted by polβ in base excision repair”.

Data set [1] deals with AP-endonuclease 1 (human) (UniProt P27695). As to the kind of experiment: SPR; Biacore X-100; APE1 amine-coupled on a CM5 chip, 25 °C; LIG1 0-1.6 µM injected as analyte in 20 mM HEPES pH 7.4, 150 mM NaCl, 3 mM EDTA, 0.005% Surfactant P20; 1:1 (Langmuir) fit. Background: In SPR one partner is held on a chip, and binding of the other changes the refractive index at the surface.

Data set [2] concerns the target T1, LIG1 EE/AA (C-terminal, Δ261) (Homo sapiens, UniProt P18858 262-919, E346A;E592A). As to the kind of experiment: X-ray crystallography (2.9 Å); AMP as DNA-AMP (step 2); no Mg2+; Crystallization conditions not in the material; LIG1 final purification buffer 20 mM Tris-HCl pH 7.0, 200 mM NaCl, 1 mM DTT; storage 25 mM Tris-HCl pH 7.0, 200. As to conditions: protein: recombinant; nicked duplex: 11-mer upstream + 7-mer 5'-P downstream on 18-mer template; blunt ends; A:T at nick 3'-end.

The target in data set [3] is T1, LIG1 EE/AA (C-terminal, Δ261). As to the kind of experiment: X-ray crystallography (3.0 Å); AMP as DNA-AMP (step 2); no Mg2+; Crystallization conditions not in the material; LIG1 final purification buffer 20 mM Tris-HCl pH 7.0, 200 mM NaCl, 1 mM DTT; storage 25 mM Tris-HCl pH 7.0, 200. As to conditions: protein: recombinant; nicked duplex: 11-mer upstream + 7-mer 5'-P downstream on 18-mer template; blunt ends; G:T wobble mismatch at nick 3'-end.

Data set [4] shares this target. The data set is described as follows: X-ray crystallography (2.8 Å); AMP covalently on K568 (LIG1-AMP, step 1); no Mg2+; Crystallization conditions not in the material; LIG1 final purification buffer 20 mM Tris-HCl pH 7.0, 200 mM NaCl, 1 mM DTT; storage 25 mM Tris-HCl pH 7.0, 200. As to conditions: protein: recombinant; nicked duplex: 11-mer upstream + 7-mer 5'-P downstream on 18-mer template; blunt ends; A:C wobble mismatch at nick 3'-end.

T1 sequence (P18858 262-919 E346A/E592A): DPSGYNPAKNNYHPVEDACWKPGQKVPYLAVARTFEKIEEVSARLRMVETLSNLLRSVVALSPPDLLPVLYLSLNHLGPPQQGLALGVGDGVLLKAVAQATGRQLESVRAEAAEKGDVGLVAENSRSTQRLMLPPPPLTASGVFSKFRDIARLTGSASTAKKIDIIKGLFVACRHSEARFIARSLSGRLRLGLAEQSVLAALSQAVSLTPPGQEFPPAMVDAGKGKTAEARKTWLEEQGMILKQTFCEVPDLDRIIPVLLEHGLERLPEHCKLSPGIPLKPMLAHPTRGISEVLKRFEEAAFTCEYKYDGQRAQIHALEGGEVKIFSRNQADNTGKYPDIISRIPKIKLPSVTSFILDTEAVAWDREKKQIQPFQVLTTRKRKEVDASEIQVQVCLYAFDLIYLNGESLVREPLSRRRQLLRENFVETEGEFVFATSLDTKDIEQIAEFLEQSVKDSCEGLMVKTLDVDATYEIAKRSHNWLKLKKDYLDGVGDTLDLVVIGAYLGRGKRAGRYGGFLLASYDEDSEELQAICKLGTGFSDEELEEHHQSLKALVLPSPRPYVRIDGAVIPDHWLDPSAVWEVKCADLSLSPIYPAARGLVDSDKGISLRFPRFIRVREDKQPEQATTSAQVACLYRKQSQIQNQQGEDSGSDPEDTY
Chain of AP-endonuclease 1 (human) (P27695 whole entry): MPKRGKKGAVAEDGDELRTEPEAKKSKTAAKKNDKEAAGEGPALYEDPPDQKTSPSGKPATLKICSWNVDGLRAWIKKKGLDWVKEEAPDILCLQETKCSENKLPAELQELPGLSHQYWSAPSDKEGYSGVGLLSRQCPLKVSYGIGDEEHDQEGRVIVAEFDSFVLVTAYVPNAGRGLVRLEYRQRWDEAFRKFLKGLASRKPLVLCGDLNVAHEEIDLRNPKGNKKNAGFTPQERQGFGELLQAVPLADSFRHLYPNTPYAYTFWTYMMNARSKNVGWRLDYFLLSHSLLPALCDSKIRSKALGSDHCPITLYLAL

What is called Kd is the free concentration of one partner at which half of the binding sites on the other are occupied at equilibrium, for simple one-to-one binding. Lower therefore signals tighter binding. “DNA ligase I (from UniProt P18858 1-919) (enzyme)” had a Kd in data set [1] of 117 nM.

B1: nick DNA 3'-A:T (dsDNA)
DNA 1: GCTGATGCGTA
DNA 2: GTCGGAC
DNA 3: GTCCGACTACGCATCAGC
modifications: 5'-phosphate on downstream strand (GTCGGAC); adenylated (5'-AMP) in the crystal
For the molecule B1, in data set [2], the binding result is given as “binds”.

B2: nick DNA 3'-G:T (dsDNA)
DNA 1: GCTGATGCGTG
DNA 2: GTCGGAC
DNA 3: GTCCGACTACGCATCAGC
modifications: 5'-phosphate on downstream strand (GTCGGAC); adenylated (5'-AMP) in the crystal
B2: the binding result in data set [3] is reported as “binds”.

B3: nick DNA 3'-A:C (dsDNA)
DNA 1: GCTGATGCGTA
DNA 2: GTCGGAC
DNA 3: GTCCGACCACGCATCAGC
modifications: 5'-phosphate on downstream strand (GTCGGAC), not adenylated
B3: the binding result in data set [4] was “binds”.
